Source: PMC8792056 (2022)

B1: DNAJB14-FL-FLAG [human] / DNAJB12-FL-mOrange [human] (parent complex)
chain 1: MEGNRDEAEKCVEIAREALNAGNREKAQRFLQKAEKLYPLPSARALLEIIMKNGSTAGNSPHCRKPSGSGDQSKPNCTKDSTSGSGEGGKGYTKDQVDGVLSINKCKNYYEVLGVTKDAGDEDLKKAYRKLALKFHPDKNHAPGATDAFKKIGNAYAVLSNPEKRKQYDLTGNEEQACNHQNNGRFNFHRGCEADITPEDLFNIFFGGGFPSGSVHSFSNGRAGYSQQHQHRHSGHEREEERGDGGFSVFIQLMPIIVLILVSLLSQLMVSNPPYSLYPRSGTGQTIKMQTENLGVVYYVNKDFKNEYKGMLLQKVEKSVEEDYVTNIRNNCWKERQQKTDMQYAAKVYRDDRLRRKADALSMDNCKELERLTSLYKGG
chain 2: MESNKDEAERCISIALKAIQSNQPDRALRFLEKAQRLYPTPRVRALIESLNQKPQTAGDQPPPTDTTHATHRKAGGTDAPSANGEAGGESTKGYTAEQVAAVKRVKQCKDYYEILGVSRGASDEDLKKAYRRLALKFHPDKNHAPGATEAFKAIGTAYAVLSNPEKRKQYDQFGDDKSQAARHGHGHGDFHRGFEADISPEDLFNMFFGGGFPSSNVHVYSNGRMRYTYQQRQDRRDNQGDGGLGVFVQLMPILILILVSALSQLMVSSPPYSLSPRPSVGHIHRRVTDHLGVVYYVGDTFSEEYTGSSLKTVERNVEDDYIANLRNNCWKEKQQKEGLLYRARYFGDTDMYHRAQKMGTPSCSRLSEVQASLHG

Variants of: B1
Experiment: co-IP (IP: FLAG, WB: mOrange), densitometry with Fiji; HEK293T cells; n = 3 biologically independent samples; parent: 2.7; read off a plot

| Variant | response |
| --- | --- |
| chain 1 MEGNRDEAEKCVEIAREALNAGNREKAQRFLQKAEKLYPLPSARALLEIIMKNGSTAGNSPHCRKPSGSGDQSKPNCTKDSTSGSGEGGKGYTKDQVDGVLSINKCKNYYEVLGVTKDAGDEDLKKAYRKLALKFQPDKNHAPGATDAFKKIGNAYAVLSNPEKRKQYDLTGNEEQACNHQNNGRFNFHRGCEADITPEDLFNIFFGGGFPSGSVHSFSNGRAGYSQQHQHRHSGHEREEERGDGGFSVFIQLMPIIVLILVSLLSQLMVSNPPYSLYPRSGTGQTIKMQTENLGVVYYVNKDFKNEYKGMLLQKVEKSVEEDYVTNIRNNCWKERQQKTDMQYAAKVYRDDRLRRKADALSMDNCKELERLTSLYKGG [chain 1 H136Q] | ~7.2 [ORANGE]/[FLAG] |
